This assay has as its target F pilus (conjugative pilus encoded by the F′ plasmid) on E. coli TOP10F′ (F+) cells (E. coli (endogenous on TOP10F′, F′ plasmid)) (UniProt P04737).
UniProt P04737, sequence (P04737 52-121): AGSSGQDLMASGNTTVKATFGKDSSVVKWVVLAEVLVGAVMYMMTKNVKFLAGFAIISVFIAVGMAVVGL

Take “g3p on replicating phage M13-km^R (from UniProt P69168 19-424) (natural protein)”: the inhibition of F-mediated conjugation by replicating phage M13-km^R (no pre-infection), binding model applied naively without phage replication and infection: apparent Kd stood at 2.4 pM.

The values above are taken from article PMC3102678.
